Consider 17 sequences from a protein production outcome set (Wang et al. 2014).

The nature of the data set: label from the status in PepcDB records.

In the case of “MTIAATMLRAITVLMALLLLVAAGPAAAADEGGDLLEQFLGRKYEPVLKPLEIPEGTPPSEALFLYLNQGYGDAGVIGDFLAKGADANYADKEYRITLLHNVAHYGHAEATRILLAAGARVNAVNGEGNTPLFAAVHEGHDDVARILLDAGADVTIANSYWYTPLREACRRGNTGMVRLLLEKGADVNITDNKGFTPLHAAVSAEALEAATLILDSGADINIAGRYGDTPLHYAVGLGYEEFVRLFLARGADPTIRNDRGLTPRQLAEERGFASIVELFRNWGKNTI”, the protein production entry was “failed”.
To “MTIACPQCGATAEARTDTRFHGCAFCGSSFMVERGVGIAEYHLDHERDDRVAWSAVASTLERDGAGQAVERTGCEYLVAPFWLSRPESGGNRLVPALRHPWLQGPLPGLPGGDLLFVPSGDDFILPDIPADEALGEGADRGGTSLSLVYLPLYLLSFRLAGHDCRALVSAVDRRVALLTPLPARSESVPFRHAALVAGFAITLTASGLAVKSHFLRAAVFAAVLAVAWPVCTALLRRGE” belongs “failed”; to “MTIAILSTGDEIIHGDTLNTNAHYIAHALCSEGLPLGLQVACSDKENEIIDSLNFLTQHHDILILIGGLGPTKDDITRFALAKFTKEPLLQHADALDHIEKKANIAKISLNQGNLQQCLFPANARLFPNPYGTAMGCSYSWKGKVFILLPGPPRECLPMFNQDVLPLLLQTSRHSNK”, “not failed”; to “MTIHKKGQAHWEGDIKRGKGTVSTESGVLNQQPYGFNTRFEGEKGTNPEELIGAAHAACFSMALSLMLGEAGFTPTSIDTTADVSLDKVDAGFAITKIALKSEVAVPGIDASTFDGIIQKAKAGCPVSQVLKAEITLDYQLKS”, “not failed”.
As to “MTIKSLLSDIEREERNVHKAIKDSVKRNDLVTAKALAREIVSSRRTVKRLYENKAQVNSISMHLGESIATAVTVGNLSKSGEVMKLVNSLMKAPEIAVTMQAFSKEMTKTGVIEEFVSDAVDNALDSEDIEEEIEEEVDKVLTAIAGETAAELPEAVRKQKMNVPAQKAETLHGEDAIVEGVDAEEELEAIRYRLANVRS”, the protein production result is reported as “failed”.
To “MTIKTLQYDDFMLYRERIRDLLVQIYDINFDVSHDYSINESNKKINLLDEYIKTNQAVLIGAVDGEKLVGFIWIYKHEYFGETRMHINQIIVDKEYKRKGIGKRLLEEAEKKAKELGIKVIDLFVSEKNAEAVNFYEKTGFVTERRYLKKILLEHHHHHH” belongs “not failed”; to “MTILDRLTGLAFPAAVLRRAIKLADSGKAAEAFPLMAKAARAGIVDAEYRVARCYLEGAGVPPSRMEGARWLLRAADHGSADAQALLAALYVTGLVTSEADGKGPSEHLFKPDSAGKPDFTAAFDFATKAAEAGSATGQAILGYILTSGPASMRDADAAHRWYEKSASAGCAEGCLGFALSLARRGKRENRVRIAEEVRRAADAGLPTATYLLAVLTEHGLGVARDMAAAAQLYQAAAEKGLPSAQFRLGLALIDGALVGQDVAAGEAWMRRAALAGNIEAAYLLGDRHAKTQRPDFAEAANWYRRAAEAGHQAAARALASLYLTGNGVAEDVEEGARWLRSSASAGNQQAQTDLANLILGGAGEPDDGASVAGWFEAAASSGDLIAAFNLGLCFAKGVGVRQDEGQAAHWLRRAAEGVAEAQYMYARLLQDGRGVAADPTQARVWFARAADAGVLDARVALAEMLLNGRGGMPEPEAAMQLFEQAAADGHAGAMFAIGALYGAGHGLPLDQTTAQKWYAAAAGRGHSQAQFMLGRYLLKGLAGERDPVAARLWLERAAAHGISEAADELGAAGGSD”, “failed”; to “MTILTRYIAGAYLKILGLCLASFVAIYLVIDFLEKIGRLLRFQPRWIDIIQYFICKLPEIITQVIPLAVLMSTLLTLGMLSRNSEIVAMRGCGVGLGRISAPLIVIAAAVSLLTIFSNEFVLPSSYRQMRYVDQVLIRKQGTNTFFRQNNIWHKDESAIMMARVFDPGRQALRGITLWRFSDGMRPVSRIDAAEGTWDGARWTFKTVTVRGLAGPSVETRTLASLPAELNLKIEDLKVVDKYADNMGFFKLRDYVRKLKAGGYDTTRYEAQMHSKISLPFASLIMAFLGIPFALRGGRSSGVALGITASIGIGFAYFITNSILISFGQTGILPPLISAWAANVLFALSGIWLAMTLDR”, “failed”.
Then “MTIPKLSPSPESYPESLTFAELGLNAALRKALPTRLKHPTRVQQLAIPAILAGRDLLALSQTGSGKTFAFGLPLLQILWQQIAVQTTAKSVPAAKPLALVLVPTRELALQVSEALHALASQLSTSAPLNIQLLCGGVALEQQLADLSAKPQLVVATPGRLLDLCTQSHISLDAIKHLVLDEADRLLEMGFWPDMQKLMAMMPKRKQTLLFSATLPEALDSLAGKLLTNDPLKVEASTRNAVVGEIEEQLYLVNKGSKAQALIALLKQYQWPQVLVFISARDDADAIAKRLVKAGINAAALHGEKDQTVRSQTLADFKADRIQVLVATDLMARGIHVDALPVVINLDLPTSAPVYVHRIGRTARAGAKGLAISLVCHGEMPNLTAIRNLTARALPLVFLADFPVTDKPSEKIIDGAENKVIPKRPPRDKQANRRSINKHSVKAFKGKR”, with “failed”.
Then “MTISNKTLTAAAAGLAAVLAVLLVPALAGQSAHTGHTMPAHTPPAQTAPAAQKAGAQALPVTVQGATVAAVPPSIRDTAAYMTLTNKSDQPIKLVGAATPLATSPMLMTTTHSGGMAGMKMVPWLTIPARGTLTLQRDGDHVMLMGLKRPLKVGETVNITLKATDGRTLNVAATVKKN”, with “not failed”.
For the sequence “MTISQNRNGDDVAVHKFGLFVAKHRKLVLAIAILLLIPSIYGFVTTKVNYDILTYLPKDLESVKGQDILDKEFKQAALSMLIVKGDMNISNIQKLKSKISQVDGVEKVIWIDDFLDPTIPKEMLPDVLKNTFYSKDSTLLLIQFKNSASSLETQNAISKIRKIATAQCFLSGMSAIIKDTRDLSDRETPLYVLVAVVFIFILLLLTMESPIVPILFLTSIGMAIIYNLGTNKFLGEISYITKSLAAVLQLGVTMDFSIFLMHRYDEERKRFDSKEEAMAEAISKTLVAILSSAATAIAGFLALCVMRLRIGADIGIVMAKGVFLGVIGTVTILPALILTFDRAIHKFRLKNILPTFSKTAEFATKYHVVLFVVFLLAFIPAIYGRVNIKEYYNLIDSLPKTIKSVQATDLLKKEYNMTTTHMVLVDRSVPKYQIKNMCEEIKRVKGVEKVLAFDDILGPAIPDEFIPSSVKENFEKGNFKLIMINSIYKSATSEENAQIERIQQIVKKYSKRSYVTGEGVLTKDLVEMADTDLKRVDFISILAIFMIILITFKSISIPLILVLAIELAIFINLAIPYYTNVTVPFIASIVLGTIQLGSAINYAILMTTRFREEIQKGHDRFEAIKIAVKTSSRSVVTSALAFAFSTLAVALIAKIDMIRSLCEMLSRGAVISMIVILFVLPSLLLLFEGAIAKTTFGWRSKEASVKPSEEYETL”, the protein production result is on record as “failed”.
To “MTISRNYDQEIKDTAGHKYAYNFDFDVMHPFMVRAFTPFFRPGNLLELGSFKGDFTSRLQEHFNDITCVEASEEAISHAQGRLKDGITYIHSRFEDAQLPRRYDNIVLTHVLEHIDDPVALLKRINDDWLAEGGRLFLVCPNANAVSRQIAVKMGIISHNSAVTEAEFAHGHRCTYALDTLERDASRAGLQVTYRSGIFFKALANFQWDQILQTDILSKEYLDGCYQLGQQYPDLCASIFLLCEKGINQ” belongs “not failed”; to “MTITDKNRLTGEADPRRTSLYGPPSMDALTERALHLARAGRALLGIVGEPGAGKSTFAEQLRARLEKERPGLAVTVSMDGFHLAQKVIEARGQAADKGTIDTFDADGFVALLRRTRAETGDTENTESTVWWPEFDRDLEDPVAGSIEVAPHHRLVIVDGNFLLSAQEPWRQVKGLLDETWFLDALPEPRRERLTRRYISYGFTPEAARAKTLGVDEDTSALIRSTVSRADLVIGEARESGGVSDCLEHHHHHH”, “failed”; to “MTKFNYKSSLYLFNTIFLISLTTLGTMVMIPFAVESKIPKKTSNSISPFCKVLSEKFSPFGAAPDLSVALGKAIAEGGNLNQPCDIFGEKWLPLNFLLSTDEELSQRLIQTGVNVNAKDGKGDTPLHYLGKSEKNARLLLSRGAKVNVGNQNGNTPLHNLFGQKTAYVIKLLIDRGAKVNARNQEQMTPLHFAANSGKADITELLISRGGDVNARSTQNWTPLHYGASNLEVAKKLIQAGADLTIQNREGAVIHSSSLEPAVLKLLLDRGVNVNLRNRQGQTPLHIHRFQPALVKLLLARKAQVNLRDAQGKTPLYDVNLEVARQLVAANADLNVQDNLGRTPLHQAVLEEQSFFGSELVTLFLSKNARVDLKDKQGKTALDLARQLNKTQIINLLERHMATKNSPGSGTSTTKATEQLQQFLKSKNWSAADQETRRLLSPQKDLFGLNAATIPLDLIQEIDRAWLVASDGRFGLSVQAKIWQKVIASHPNNSETAANTFRDRVGWKLKVARTENDFISSDWLNESELNYSLQAPVGHLPWAGVSDASVLSLAVPPPGEHCGSCTIDAMFLRDGRFYKYLPQLFARVKMALNMNVSRPKSLAIAKK”, “failed”.
As to “MTKIIKYTNKDNETLYKFRFYAGLDEITGKQRYIRRQGFKSEKDAKTELLKIEYLVSTNQYFKSVKSGKFGDVLDEWLALHKETVKASTWRYIERRVKNHVRPYFKDMYVDKITLRHCQDFTNKAFAAAPVGFTQIISIVKNTLDYALRLGMIESNPMLYVIKPKKQTTISDKHGNYYNKDELKKFLAAAKDTDLKKYTLFRLLAYSGLRVGECLALTWHDLDYKNNTIAINKTYAKTNNGIKIQTPKTKASIRKVSLDVETIQVLKEWQLNQRKQLLKVGINAMNKQQLIFSNNKNSFIANETVRLAIHQIAKKTGIHPITTHGFRHTHATLLFASGMDIKQVQARLGHSNVQTTLNIYTHAIQDKQDKIGDEFAKYINF”, the protein production entry was “failed”.
Then “MTKKKVYIVSHSHWDREWYLPYEEHHMRLIELVDNVLDLIENDPEFNSFHLDGQTIILDDYLQVRPEKKEAVKKAVQAGKLKIGPFYILQDDFLISSESNVRNMLIGHLESQKWGAPVQLGYFPDTFGNMGQTPQMMQLANLPAAAFGRGVKPIGFDNQVLESDYSSQYSEMWWEGPDQTKIFGLLFANWYSNGNEIPSEKEAAIAFWKQKLADVERYASTNHLLMMNGVDHQPVQRDITKAIALANELFPEYEFIHSNFDDYLKAVQEELPEDLGTVTGELTSQETDGWYTLANTSSARVYLKQWNTKVQRQLENIAEPLAAMAYEVTGDYPHDQFDYAWKTLLQNHPHDSICGCSVDEVHRGMMTRFENANDVGHFLADEATRQLTEAIDTSVFPEKAHPFVLFNTSGYQKTEVVTVEVEIERLPFYTGKPEDLYHELKQKATPDYQVIDPTGKAVASRIVKEDVRFGYDLPKDAFRQPYMAKYLTVELSVKEMAPFSWDSFALIQGETKAFEGSLLAQPATNEMENEFIQVKIENNGSLTIADKKTGETFSKLLTFEDTGDIGNEYIFFKPTEDQGITTENVTAEITNKENSPVKASYQIKQTVMLPVAADERLEEEQKAVREFRERLAQRSTTLRPFEITTMVTMIKESNQLFFETTINNQIKDHRLRVLFPTGMVTETHEADSIYEVVTRPNQVSDTWENPTNPQHQQAFVNVHDQNKGVTIFNEGLNEYEVLADGTIAVTLIRCVGELGDWGYFATPEAQCQGEYTFKYGLSLHGKPEERFATYQQAYSAQIPFTAATTARHEGKLAPNHVYLTTAEGPIGWTAVKRQEQTNHLVVRGFNLTAQNIPCELHKETQPATCLTNVLEEPLTPAIEVDAPLRPFEIRTWRFEK”, with “not failed”; and “MTKLGYVMTKSSAKNFKIYINGSAKGFKNIIISGAKAWNPSPYLNTVSIGNDVRPNYTVSSSGTNKGSVLAVCNTTYYKSNKLISKNEITLYKGFRSLSTNHKIETIVHEFGHGFGLGHVKTKNAIMLDKGFINKTKPQTDDFNGIKALYKLEHHHHHH”, with “not failed”.
